# In PMC2588538, “Structure of Reovirus σ1 in Complex with Its Receptor Junctional Adhesion Molecule-A” (PLoS Pathogens, 2008):
# B1: σ1 of reovirus strain rsT3D-σ1T249I (parent), on purified virions [mammalian orthoreovirus, strain type 3 Dearing GST-JAM-A ectodomain fusion protein [not stated] (parent)
# chain 1: MDPRLREEVVRLIIALTSDNGASLSKGLESRVSALEKTSQIHSDTILRITQGLDDANKRIIALEQSRDDLVASVSDAQLAISRLESSIGALQTVVNGLDSSVTQLGARVGQLETGLAELRVDHDNLVARVDTAERNIGSLTTELSTLTLRVTSIQADFESRISTLERTAVTSAGAPLSIRNNRMTMGLNDGLTLSGNNLAIRLPGNTGLNIQNGGLQFRFNTDQFQIVNNNLTLKTTVFDSINSRIGAIEQSYVASAVTPLRLNSSTKVLDMLIDSSTLEINSSGQLTVRSTSPNLRYPIADVSGGIGMSPNYRFRQSMWIGIVSYSGSGLNWRVQVNSDIFIVDDYIHICLPAFDGFSIADGGDLSLNFVTGLLPPLLTGDTEPAFHNDVVTYGAQTVAIGLSSGGAPQYMSKNLWVEQWQDGVLRLRVEGGGSITHSNSKWPAMTVSYPRSFT
# chain 2: SVTVHSSEPEVRIPENNPVKLSCAYSGFSSPRVEWKFDQGDTTRLVCYNNKITASYEDRVTFLPTGITFKSVTREDTGTYTCMVSEEGGNSYGEVKVKLIVLVPPSKPTVNIPSSATIGNRAVLTCSEQDGSPPSEYTWFKDGIVMPTNPKSTRAFSNSSYVLNPTTGELVFDPLSASDTGEYSCEARNGYGTPMTSNAVRMEAVERNVGV
# Variants of: B1
# Test: SPR
# Conditions: with GST-JAM-A ectodomain fusion protein, GST-JAM-A captured on biosensor surface, read off a plot
# [1] = 6×1012 (green) particles/ml virus, parent: 62
# [2] = 8×1012 (orange) particles/ml virus, parent: 98
# [3] = 1013 (red) particles/ml virus, parent: 205
variant,measurement,setting,value
chain 1 E384A,response,[1],140 RU
same,response,[2],280 RU
same,response,[3],460 RU
chain 1 G381A,response,[1],17 RU
same,response,[2],28 RU
same,response,[3],36 RU
